Data published in paper PMC9388138.

Legend:
Assay in all cases: flow cytometry on cells; T cells stably expressing the IL13-based CARs titrated with recombinant biotinylated receptor (IL13Rα1-Fc, IL13Rα2-Fc or mouse IL13Rα1); dose-response curves, three independent trials
[1] = target: IL13 C4 CAR (IL13 C4 - IgG4(EQ)-Fc linker - CD28 transmembrane and costimulatory domain - CD3ζ) on T cells
[2] = target: IL13 E12Y CAR (IL13 E12Y - IgG4(EQ)-Fc linker - CD28 transmembrane and costimulatory domain - CD3ζ) on T cells
[3] = target: IL13 D7 CAR (IL13 D7 - IgG4(EQ)-Fc linker - CD28 transmembrane and costimulatory domain - CD3ζ) on T cells
[4] = target: IL13 WT CAR (IL13 - IgG4(EQ)-Fc linker - CD28 transmembrane and costimulatory domain - CD3ζ) on T cells

B1: Recombinant human IL13Rα2-Fc chimera (Fc fusion)
chain: DTEIKVNPPQDFEIVDPGYLGYLYLQWQPPLSLDHFKECTVEYELKYRNIGSETWKTIITKNLHYKDGFDLNKGIEAKIHTLLPWQCTNGSEVQSSWAETTYWISPQGIPETKVQDMDCVYYNWQYLLCSWKPGIGVLLDTNYNLFYWYEGLDHALQCVDYIKADGQNIGCRFPYLEASDYKDFYICVNGSSENKPIRSSYFTFQLQNIVKPLPPVYLTFTRESSCEIKLKWSIPLGPIPARCFDYEIEIREDDTTLVTATVENETYTLKTTNETRQLCFVVRSKVNIYCSDDGIWSEWSDKQCWEGEDLSKKTLLR
modifications: biotin (in the titration of CAR T cells)
For B1, the Kd [1] was 29 nM, the Kd [2] was 1.8 nM and the Kd [3] was 4.2 nM. For the same binder, the Kd [4] was 1.7 nM.

B2: Recombinant human IL13Rα1-Fc chimera (Fc fusion)
chain: GGGGAAPTETQPPVTNLSVSVENLCTVIWTWNPPEGASSNCSLWYFSHFGDKQDKKIAPETRRSIEVPLNERICLQVGSQCSTNESEKPSILVEKCISPPEGDPESAVTELQCIWHNLSYMKCSWLPGRNTSPDTNYTLYYWHRSLEKIHQCENIFREGQYFGCSFDLTKVKDSSFEQHSVQIMVKDNAGKIKPSFNIVPLTSRVKPDPPHIKNLSFHNDDLYVQWENPQNFISRCLFYEVEVNNSQTETHNVFYVQEAKCENPEFERNVENTSCFMVPGVLPDTLNTVRIRVKTNKLCYEDDKLWSNWSQEMSIGKKRNST
modifications: biotin (in the titration of CAR T cells)
For B2, the Kd [2] was 34 nM and the Kd [4] was 34 nM.
